# Tests used:
# [1] = biological target: human B7-H4 expressed on cells (human) (UniProt Q7Z7D3); test: saturation binding, flow cytometry on 624mel/B7-H4 cells; negative control used as background
# [2] = biological target: human B7-H4 expressed on cells (human) (UniProt Q7Z7D3); test: flow cytometry on 624mel/B7-H4 cells, negative control antibody; signal subtracted as background from all other points
# Sequence of human B7-H4 expressed on cells (human) (Q7Z7D3 other isoform, or with tags, fused parts or gaps limits assumed): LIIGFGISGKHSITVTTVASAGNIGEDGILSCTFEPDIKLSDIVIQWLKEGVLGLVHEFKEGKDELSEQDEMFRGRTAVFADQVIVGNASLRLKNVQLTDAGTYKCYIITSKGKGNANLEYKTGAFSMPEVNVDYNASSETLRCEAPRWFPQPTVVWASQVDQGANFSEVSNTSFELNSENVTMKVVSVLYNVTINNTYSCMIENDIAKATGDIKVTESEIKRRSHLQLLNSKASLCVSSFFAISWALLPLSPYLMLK
substance,measurement,setting,value
negative control antibody (anti-PD-1 antibody),average signal (MFI),[1],245 MFI
same,MFI (average background signal),[2],245 MFI
